Here are results for five molecules from paper PMC9482650, “Quantitative fragmentomics allow affinity mapping of interactomes” (Nature Communications, 2022).

Usually pKd stands for −log10 of the Kd, conventionally taken in molar units.

Targets include PDLIM1, O00151; DLG1_2, Q12959; Inadl_3, Q8NI35; Inadl_5, Q8NI35; LIMK2, P53671; DLG4_2, P78352; TJP1_3, Q07157; FRMPD2_3, Q68DX3.
Holding throughout (experiment): holdup assay
Common to all, as to parameters: key: below the threshold = too weak to quantify, mostly under pKd 3.1 to 4
Holding throughout (details): plain residues with an end cap or a label only (N-terminal biotin on a linker: ado-ado)

For a further assay, the target named is T1, SNTG1, Q9NSN8.
T1 sequence (Q9NSN8 52-150, limits assumed, looked up): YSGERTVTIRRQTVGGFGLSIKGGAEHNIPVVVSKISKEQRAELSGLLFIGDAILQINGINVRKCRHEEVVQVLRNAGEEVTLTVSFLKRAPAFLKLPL

The next assay has as its target T2, APBA2_2, Q99767.
T2 sequence (Q99767 654-744, limits assumed, looked up): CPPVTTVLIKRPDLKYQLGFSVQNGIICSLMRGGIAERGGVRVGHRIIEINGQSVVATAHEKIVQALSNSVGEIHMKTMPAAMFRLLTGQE

The next assay concerns the target T3, DLG3_2, Q92796.
T3 sequence (Q92796 221-321, limits assumed, looked up): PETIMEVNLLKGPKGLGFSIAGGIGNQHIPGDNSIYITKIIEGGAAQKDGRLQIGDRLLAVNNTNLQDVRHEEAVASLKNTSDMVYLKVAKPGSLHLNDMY

A further assay concerns the target T4, DVL3, Q92997.
T4 sequence (Q92997 244-331, limits assumed, looked up): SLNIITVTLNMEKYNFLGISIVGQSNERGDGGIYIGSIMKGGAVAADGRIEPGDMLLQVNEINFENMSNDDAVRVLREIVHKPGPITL

The next assay addresses T5, ARHGAP21, Q5T5U3.
T5 sequence (Q5T5U3 45-169, limits assumed, looked up): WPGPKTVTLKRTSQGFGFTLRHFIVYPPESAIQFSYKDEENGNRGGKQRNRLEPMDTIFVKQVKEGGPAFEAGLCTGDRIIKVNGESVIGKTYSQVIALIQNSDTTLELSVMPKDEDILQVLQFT

The next assay has as its target T6, NHERF3_1, Q5T2W1.
T6 sequence (Q5T2W1 4-100, limits assumed, looked up): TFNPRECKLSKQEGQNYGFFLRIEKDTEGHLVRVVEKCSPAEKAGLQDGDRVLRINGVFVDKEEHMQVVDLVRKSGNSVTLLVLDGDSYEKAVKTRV

The target in a further assay is T7, MPP6, Q9NZW5.
T7 sequence (Q9NZW5 125-219, limits assumed, looked up): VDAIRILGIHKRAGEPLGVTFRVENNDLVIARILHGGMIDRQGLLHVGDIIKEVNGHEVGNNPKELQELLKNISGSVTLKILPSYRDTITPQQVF

The next assay has as its target T8, TIAM2, Q8IVF5.
T8 sequence (Q8IVF5 885-986, limits assumed, looked up): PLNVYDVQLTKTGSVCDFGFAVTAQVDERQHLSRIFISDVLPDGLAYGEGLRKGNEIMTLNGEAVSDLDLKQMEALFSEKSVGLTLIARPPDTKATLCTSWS

A further assay concerns the target T9, SNTB1, Q13884.
T9 sequence (Q13884 107-205, limits assumed, looked up): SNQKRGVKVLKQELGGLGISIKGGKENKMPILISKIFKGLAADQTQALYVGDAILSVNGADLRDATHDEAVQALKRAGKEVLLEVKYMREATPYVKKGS

For another assay, the target named is T10, LNX2_3, Q8N448.
T10 sequence (Q8N448 463-564, limits assumed, looked up): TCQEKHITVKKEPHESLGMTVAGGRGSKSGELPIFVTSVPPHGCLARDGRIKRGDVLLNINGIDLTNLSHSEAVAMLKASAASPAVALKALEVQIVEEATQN

A further assay addresses T11, RADIL, Q96JH8.
T11 sequence (Q96JH8 971-1071, limits assumed, looked up): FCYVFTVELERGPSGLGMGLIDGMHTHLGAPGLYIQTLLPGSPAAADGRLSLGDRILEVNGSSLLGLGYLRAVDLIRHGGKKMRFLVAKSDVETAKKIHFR

The target of the next assay is T12, HTRA4, P83105.
T12 sequence (P83105 378-476, limits assumed, looked up): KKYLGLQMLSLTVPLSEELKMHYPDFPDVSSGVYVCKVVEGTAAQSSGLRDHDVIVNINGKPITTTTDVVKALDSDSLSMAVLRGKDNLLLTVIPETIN

For another assay, the target named is T13, RAPGEF6, Q8TEU7.
T13 sequence (Q8TEU7 525-625, limits assumed, looked up): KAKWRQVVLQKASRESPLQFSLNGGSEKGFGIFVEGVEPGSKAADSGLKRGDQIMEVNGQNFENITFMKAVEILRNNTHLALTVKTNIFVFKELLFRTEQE

Another assay concerns the target T14, PDZD2_2, O15018.
T14 sequence (O15018 329-429, limits assumed, looked up): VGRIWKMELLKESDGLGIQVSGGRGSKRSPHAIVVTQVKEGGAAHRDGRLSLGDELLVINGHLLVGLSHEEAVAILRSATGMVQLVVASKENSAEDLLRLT

Chain of Inadl_3, Q8NI35 (Q8NI35 359-469): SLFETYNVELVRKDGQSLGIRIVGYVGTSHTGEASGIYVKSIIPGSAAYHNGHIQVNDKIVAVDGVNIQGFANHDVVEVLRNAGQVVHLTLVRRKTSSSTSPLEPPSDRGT
Chain of PDLIM1, O00151 (O00151 1-87): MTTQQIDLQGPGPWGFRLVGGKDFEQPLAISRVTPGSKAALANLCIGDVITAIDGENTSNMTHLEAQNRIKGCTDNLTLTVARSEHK
Chain of TJP1_3, Q07157 (Q07157 416-512): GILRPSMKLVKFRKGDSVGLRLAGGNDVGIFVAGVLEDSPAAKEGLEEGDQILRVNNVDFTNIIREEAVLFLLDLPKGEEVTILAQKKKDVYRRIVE
Chain of FRMPD2_3, Q68DX3 (Q68DX3 1073-1166): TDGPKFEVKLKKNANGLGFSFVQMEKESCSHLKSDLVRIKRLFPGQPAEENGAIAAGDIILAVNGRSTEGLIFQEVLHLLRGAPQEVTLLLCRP
Chain of LIMK2, P53671 (P53671 143-248): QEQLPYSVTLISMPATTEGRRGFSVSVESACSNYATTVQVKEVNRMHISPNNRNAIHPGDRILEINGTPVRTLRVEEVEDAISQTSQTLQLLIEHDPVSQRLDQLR
Chain of DLG1_2, Q12959 (Q12959 314-412): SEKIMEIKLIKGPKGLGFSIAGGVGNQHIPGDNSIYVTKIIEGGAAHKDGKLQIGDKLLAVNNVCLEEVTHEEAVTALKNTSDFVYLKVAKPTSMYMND
Chain of Inadl_5, Q8NI35 (Q8NI35 673-780): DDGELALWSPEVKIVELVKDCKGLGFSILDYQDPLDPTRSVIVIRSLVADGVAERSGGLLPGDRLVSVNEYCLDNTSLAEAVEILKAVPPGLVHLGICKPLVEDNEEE
Chain of DLG4_2, P78352 (P78352 155-259): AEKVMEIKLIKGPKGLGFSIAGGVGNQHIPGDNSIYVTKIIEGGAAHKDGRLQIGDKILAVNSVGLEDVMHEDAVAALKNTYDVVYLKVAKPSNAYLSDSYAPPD

B1: TYRO3, Q06418 (peptide)
chain: QQGLLPHSSC
Take B1: the pKd result in the assay with SNTG1, Q9NSN8 is “below the threshold”; with APBA2_2, Q99767, “below the threshold”; in the assay with PDLIM1, O00151, “below the threshold”; with DLG3_2, Q92796 it was “below the threshold”; in the assay with DVL3, Q92997, “below the threshold”; with ARHGAP21, Q5T5U3, 4. Also, the pKd result with DLG1_2, Q12959 was “below the threshold”; in the assay with NHERF3_1, Q5T2W1, “below the threshold”; with Inadl_3, Q8NI35, “below the threshold”; with Inadl_5, Q8NI35 it was “below the threshold”; in the assay with MPP6, Q9NZW5 it was “below the threshold”; with LIMK2, P53671 it was “below the threshold”. For the same molecule, the pKd result with TIAM2, Q8IVF5 is listed as “below the threshold”; with SNTB1, Q13884 it was “below the threshold”; with LNX2_3, Q8N448, “below the threshold”; in the assay with RADIL, Q96JH8, “below the threshold”; with HTRA4, P83105, “below the threshold”; with DLG4_2, P78352, “below the threshold”. Moreover, the negative logarithm of the Kd (pKd) entry with RAPGEF6, Q8TEU7 was “below the threshold”; in the assay with TJP1_3, Q07157, “below the threshold”; with PDZD2_2, O15018, 3.55; with FRMPD2_3, Q68DX3, “below the threshold”.

B2: TMEM178B, H3BS89 (peptide)
chain: KSRPENGTVC
For the molecule B2, the pKd result with SNTG1, Q9NSN8 was “below the threshold”; with APBA2_2, Q99767, “below the threshold”; with PDLIM1, O00151 it was “below the threshold”; with DLG3_2, Q92796, 3.54; with DVL3, Q92997 it was “below the threshold”; in the assay with ARHGAP21, Q5T5U3, 4.14. Moreover, the pKd result is “below the threshold” in the assay with DLG1_2, Q12959; 3.62 with NHERF3_1, Q5T2W1; “below the threshold” with Inadl_3, Q8NI35; “below the threshold” with Inadl_5, Q8NI35; “below the threshold” with MPP6, Q9NZW5; “below the threshold” with LIMK2, P53671. Moreover, the pKd result with TIAM2, Q8IVF5 is “below the threshold”; with SNTB1, Q13884, 3.56; in the assay with LNX2_3, Q8N448, “below the threshold”; in the assay with RADIL, Q96JH8, “below the threshold”; with HTRA4, P83105 it was “below the threshold”; with DLG4_2, P78352 it was “below the threshold”. The pKd entry with RAPGEF6, Q8TEU7 was “below the threshold”; with TJP1_3, Q07157 it was “below the threshold”; with PDZD2_2, O15018 it was 3.59; with FRMPD2_3, Q68DX3 it was “below the threshold”.

B3: IGSF5, Q9NSI5 (peptide)
chain: PEKVSNTTVV
Take B3: the pKd result with SNTG1, Q9NSN8 is “below the threshold”; with APBA2_2, Q99767 it was “below the threshold”; with PDLIM1, O00151 it was “below the threshold”; in the assay with DLG3_2, Q92796, 4.73; with DVL3, Q92997, “below the threshold”; with ARHGAP21, Q5T5U3, “below the threshold”. Further, the pKd is 4.64 with DLG1_2, Q12959; “below the threshold” with NHERF3_1, Q5T2W1; 3.48 in the assay with Inadl_3, Q8NI35; “below the threshold” in the assay with Inadl_5, Q8NI35; “below the threshold” with MPP6, Q9NZW5; “below the threshold” with LIMK2, P53671. Also, the pKd with TIAM2, Q8IVF5 is 4.04; with SNTB1, Q13884, 3.93; in the assay with LNX2_3, Q8N448 it was “below the threshold”; with RADIL, Q96JH8 it was 4.3; with HTRA4, P83105 it was “below the threshold”; in the assay with DLG4_2, P78352, 4.49. Also, the pKd result in the assay with RAPGEF6, Q8TEU7 was “below the threshold”; with TJP1_3, Q07157, “below the threshold”; with PDZD2_2, O15018 it was 4.06; with FRMPD2_3, Q68DX3, “below the threshold”.

B4: SLC22A11, Q9NSA0 (peptide)
chain: EAVTVESTSL
As for B4, the pKd with SNTG1, Q9NSN8 is 3.5; with APBA2_2, Q99767, “below the threshold”; in the assay with PDLIM1, O00151 it was 3.71; with DLG3_2, Q92796, “below the threshold”; in the assay with DVL3, Q92997 it was “below the threshold”; in the assay with ARHGAP21, Q5T5U3 it was 4.12. The pKd entry was “below the threshold” with DLG1_2, Q12959; 6.1 with NHERF3_1, Q5T2W1; “below the threshold” in the assay with Inadl_3, Q8NI35; “below the threshold” with Inadl_5, Q8NI35; 3.95 in the assay with MPP6, Q9NZW5; “below the threshold” in the assay with LIMK2, P53671. For the same molecule, the pKd result with TIAM2, Q8IVF5 is “below the threshold”; with SNTB1, Q13884, 3.94; in the assay with LNX2_3, Q8N448, “below the threshold”; with RADIL, Q96JH8, “below the threshold”; in the assay with HTRA4, P83105, “below the threshold”; in the assay with DLG4_2, P78352, 3.58. Also, the pKd entry in the assay with RAPGEF6, Q8TEU7 is “below the threshold”; in the assay with TJP1_3, Q07157 it was “below the threshold”; in the assay with PDZD2_2, O15018, 4.4; with FRMPD2_3, Q68DX3 it was “below the threshold”.

B5: KCNB1, Q14721 (peptide)
chain: AHGSTRDQSI
B5: the pKd is 3.5 with SNTG1, Q9NSN8; “below the threshold” in the assay with APBA2_2, Q99767; “below the threshold” in the assay with PDLIM1, O00151; 4.21 with DLG3_2, Q92796; 3.66 with DVL3, Q92997; “below the threshold” in the assay with ARHGAP21, Q5T5U3. In addition, the pKd result with DLG1_2, Q12959 is reported as “below the threshold”; in the assay with NHERF3_1, Q5T2W1, “below the threshold”; in the assay with Inadl_3, Q8NI35, “below the threshold”; with Inadl_5, Q8NI35 it was “below the threshold”; with MPP6, Q9NZW5 it was “below the threshold”; in the assay with LIMK2, P53671, “below the threshold”. Also, the negative logarithm of the Kd (pKd) in the assay with TIAM2, Q8IVF5 is 4.05; with SNTB1, Q13884, “below the threshold”; with LNX2_3, Q8N448, “below the threshold”; with RADIL, Q96JH8, “below the threshold”; in the assay with HTRA4, P83105, “below the threshold”; in the assay with DLG4_2, P78352, 4.09. For the same molecule, the pKd is 3.91 with RAPGEF6, Q8TEU7; 3.48 with TJP1_3, Q07157; “below the threshold” in the assay with PDZD2_2, O15018; “below the threshold” in the assay with FRMPD2_3, Q68DX3.
